Measurements from the supplement of paper PMC9170038.

Tested on: MS2 coat protein
Test: apparent KD of MS2 coat protein; designed switch direction (-1 OFF switch, 1 ON switch): -1; higher = weaker reporter binding
In short: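 The buffer was Tris-HCl pH 7.5 with KCl, MgCl2, BSA, DTT, tRNA and Tween-20. In it, SNAP-549-labelled MS2 coat protein was titrated in doubling steps from 0.7 or 1.5 nM to 3 µM over chip-bound RNA switches transcribed by stalled E. coli RNA polymerase on Illumina chips. Apparent KD is the per-design median over clusters of curve fits to normalised fluorescence.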

[1] = input ligand: microRNA oligo, concentration not stated
[2] = Eterna round: R95, input ligand: microRNA oligo, concentration not stated
[3] = Eterna round: R95, input ligand: FMN 200 uM
[4] = Eterna round: R95, input ligand: none

Sequence	apparent KD of MS2 coat protein (input ligand: FMN 200 uM) [nM]	apparent KD of MS2 coat protein (input ligand: none) [nM]	apparent KD of MS2 coat protein [1] [nM]	apparent KD of MS2 coat protein [2] [nM]	apparent KD of MS2 coat protein [3] [nM]	apparent KD of MS2 coat protein [4] [nM]
UAGAAAGGUAAGGAUAUCCAUGUGAAAUAAAGAGGAGAAGGUACCACAUGAGGAUCACCCAUGUGGCUCUCAAA [jl-ex6-4.54 Nando mod] (Eterna round: R97, puzzle: Exclusion 6)	13.8	14.7				
ACGCGAGUAGGAGGAUAUUCUGAGCGCGGGCCAGAAGAAGGCCUAGAUCGUGAACAUGAGGAUCACCCAUGUGGGAUGAUCUAA [Vevexeaus] (Eterna round: R96, puzzle: Exclusion NG 1)	180	307	224			
UGAUGACAUGAGGAUCACCCAUGUCAGGAUAUUGAGCUUGAGCUGAAAAGUUCGAGUUCGAGAAGGGACUGUCG [-29.6, -26.6 kcal, A 28%, 1] (Eterna round: R97, puzzle: Exclusion 1)	28.2	29				
UGAUCUAGCGGAGGAUAUACAUGAGGAUCACCCAUGUAGAUGAGUGUACCGUAGUGCACUCUUGUGUAGAAGGCCGCUAGAUCU [JL ENG2 3.56] (Eterna round: R96, puzzle: Exclusion NG 2)	24.8	16.7	12.6			
GACUGCCGAGGAUAUACAUGAGGAUCACCCAUGUGCUUCAGCAUUUUUUAAUGCAUGGGUAGAAGGCGGUAGUC [LRO-Excl3-13] (puzzle: Exclusion 3)				29.6		
AUUUAAUUUAAUAAGAUCACAUGAGGAUCACCCAUGUUAUAAUAGGAUAUCAGCUCGAAUAGAGCUGAGAAGGAUUAUAACAUG [ExNG3/9-A4] (Eterna round: R96, puzzle: Exclusion NG 3)	17.2	29	138			
UAGUAGCAAGGAUAUACAGAGGAGAGGAAAGCAAGAGGAGGACAUGAGGAUCACCCAUGUAGAAGGUGCAGAGA [JR_Exclu2_Sub020] (puzzle: Exclusion 2)				73.9	74.6	66.6
GAAAACGCAGAGGAUAUAUCAGAUCAAAGCUGCAUAGAAGGCUGCACAUGAGGAUCACCCAUGUGGUCUUUAAU [Mat - Exclusion 6 - JL Mod - D1] (Eterna round: R97, puzzle: Exclusion 6)	237	24				
AUAAGCUUUGAGAUCCUUAACAUGAGGAUCACCCAUGUUCGUCUUAUGAUGGUCUGAUCCCUGAGGAUCGGACCGUC [JL-sv1-2.01 Brourd Mod] (puzzle: Sensor v3, turn-off variant 1)				13.5	456	416
AAGAUGCGGGUAGGAUAUGGAGAGAAAGAAAGACCAGAAGGAUUGGUCACACAACAUGAGGAUCACCCAUGUGUGUGUUGCGAA [EX ng 1 6.1] (Eterna round: R96, puzzle: Exclusion NG 1)			9.22			
AGUAGGUCUACCUUGGUGGAUCUGCAUUUAUGCAAGUGUACAUGAGGAUCACCCAUGUCCUCAUUUGCUCGUCUUAU [JL turnoff v2 99.26] (puzzle: Sensor v3, turn-off variant 2)				432	95	103
AAUUUACAUGAGGAUCACCCAUGUGAGGAUAUGGUUUCGCUGGCCGUAGCCAGUGGAACCAGAAGGCGCGUGAU [Mat - Exclusion 1 - JL Mod - D28] (Eterna round: R97, puzzle: Exclusion 1)	195	84.3				
GAAACCAGAGGAUAUGCGAAUAAAUAAAACUUUUUUUUUUAACAUGAGGAUCACCCAUGUAGAAGGCUGCAAAG [Ex2 #35] (Eterna round: R97, puzzle: Exclusion 2)	32	31				
GAGUACUUAGGAUAUACAUGAGGAUCACCCAUGUCUAGGCGGCGCUGGGUCCCUCGCAGUAGAAGGAAGCGCUG [Ceeranat] (puzzle: Exclusion 3)				20.6		
UUUUAACAUGAGGAUCACCCAUGUGAGGAUAUCGAAAUUUAUAUUAAUAUUAAUAUUACGAGAAGGCACAUUUU [JMF 26] (puzzle: Exclusion 1)				77		
GUGAAACAUGAGGAUCACCCAUGUGAGGAUAUGUUUUAGUACUGGAGACAGUACAUCUAUAGAAGGCACAAUGG [Mat - Mod of JL D75] (puzzle: Exclusion 1)				54.7		
AAUAAUGUAGGAUAUACAUGAGGAUCACCCAUGUCCCACCCGUUACCUAUGACCAUAUGUAGAAGGACAAAUAA [Exy#4] (Eterna round: R97, puzzle: Exclusion 3)	56.7	67.3				
AAAAAUUACAUGAGGAUCACCCAUGUAGAGUGGGAAGAGAGAUAGGAUAUGAUGUGAGAAUCAUAUCAGAAGGAUCGAGACUCA [AK ExNG3-2.1] (Eterna round: R96, puzzle: Exclusion NG 3)	129	119	126			

Sequence	apparent KD of MS2 coat protein (input ligand: FMN 200 uM) [nM]	apparent KD of MS2 coat protein (input ligand: none) [nM]	apparent KD of MS2 coat protein [1] [nM]	apparent KD of MS2 coat protein [2] [nM]	apparent KD of MS2 coat protein [3] [nM]	apparent KD of MS2 coat protein [4] [nM]
AUCCUCACUUUUUAAGCGAACAUGAGGAUCACCCAUGUACAAGCUUUUUGCUCGGCUUAUAAAGGGUUGGAAACAAC [Alacar Attempt 3] (Eterna round: R97, puzzle: Sensor, turn-off variant 1)	16.8	16				
UCUGGUCGAGGAUAUACAUUCGUGCUUCGGCACGUAAGAUCACAUGAGGAUCACCCAUGUAGAAGGCGACCAGA [E2/5-A3] (Eterna round: R97, puzzle: Exclusion 2)	1050	98.8				
CAUGGAACGUAGGAUAUCUCGCGGCUAGGCUGCAGAGAAGGACGCACAUGAGGAUCACCCAUGUGUGAUCCAAA [Tibiataus] (puzzle: Exclusion 6)				17	27.6	21.9
GUUUAGUGAGGAUAUAAGGCUUCGAUCGAGCGCGGUCUGCUACAGAAGGCACAUGAGGAUCACCCAUGUUUCUC [salish99_ex4_r4_311] (Eterna round: R97, puzzle: Exclusion 4)	29.2	34.4				
CGAUGCUCGAGUCGACAUGAGGAUCACCCAUGUAGAGUUAGCGAGGAUAUCGGAGACACAUAGUAUGAGAAGGCGCGAACCUGA [Ex NG3 #19] (Eterna round: R96, puzzle: Exclusion NG 3)	36.2	16.7	12.3			
GAUUAUGCGAGCUUUAGGGACAUGAGGAUCACCCAUGUUCGUCUUAUUGGUCUAGGUACGCUGACAUACCUAAAUCU [JMF 101] (puzzle: Sensor v3, turn-off variant 1)				32.2	20.9	23.7
UUAUACCUAGGAUAUACCUUUGGGUGUAGCCUAAUGUCUGGACAUGAGGAUCACCCAUGUAGAAGGAGGCGAAA [EX2 A.7] (Eterna round: R97, puzzle: Exclusion 2)	244	78				
AAGAAACAUGAGGAUCACCCAUGUGAGGAUAUGUAAAAUAAAAGAAAAGAAAGAAGAAACAGAAGGCACAAAGG [Mat - Mod of Hog D13] (puzzle: Exclusion 1)				35.4	47.3	47.5
UUUAAUUUUUUUUUUUUACAAGCUUUUUGCUCGUCUUAUACAUGAGGAUCACCCAUGUGGAUGGAAGAUAAAUUAUC [JMF 9] (puzzle: Sensor v3, turn-off variant 2)				18.6	16.2	16.5
CCGGAACAUGAGGAUCACCCAUGUGAGGAUAUCGUACGUUCGUCGAAAGACGAUCGUACGAGAAGGCACGCCGG [Eli x1 4.33] (Eterna round: R97, puzzle: Exclusion 1)	17.2	14.6				
UCCGCCAAAGGAUAUACUGGGCGUUAAAAUCCUCUUAAAAGACAUGAGGAUCACCCAUGUAGAAGGUUGAGGAA [Isererri] (puzzle: Exclusion 2)				201		
GGCACACAUGAGGAUCACCCAUGUGAGGAUAUGGUGCGAUCGUCGAUAGACGAUAGCACCAGAAGGCACAUGCC [Mat - Exclusion 1 - Eli Mod - D5] (Eterna round: R97, puzzle: Exclusion 1)	33.6	15.4				
GAGAACUGAGGAUAUACAUGAGGAUCACCCAUGUUAAGAAGAUAGUAUUGAUGGUUCUGUAGAAGGCAGAGAGA [JR_Ex3_Sub066] (Eterna round: R97, puzzle: Exclusion 3)	34.5	30.8				
UAUAUAUAGUAAGGAUAUGUAUUAAUAUUAUAAACAGAAGGUACUGACAUGAGGAUCACCCAUGUUUUAGUGUGGGCAUGUAGA [JMF's solution 77] (Eterna round: R96, puzzle: Exclusion NG 1)			66.8			
GUCGUGCAGCUUUGCUGUACGAGUACAUGAGGAUCACCCAUGUAGGAUAUGGUACGCUUUGCGUGCCAGAAGGACGUGCGUUGG [salish99_ExNG3_r04_004] (Eterna round: R96, puzzle: Exclusion NG 3)			38.3			
ACAAGCUUUUAGUUCGUCUUAUACACUCCUAAUAAGAAAACAUGAGGAUCACCCAUGUAAGAAAUAAGAACUCAUGU [Sesor Array 2 - Jieux - Sensor v3, turn-off variant 2] (puzzle: Sensor v3, turn-off variant 2)				396	151	209
AGAGUGCUGCGAGGAUAUACAUGAGGAUCACCCAUGUUAUCGUGUGAGGCUUUGCCUCACACGAAGUAGAAGGCGCAGUACUCA [Mat - Exclusion NG 2 - Mod of JL - D100] (Eterna round: R96, puzzle: Exclusion NG 2)	13.4	14.2	7.69			
